Biological target: Actin protein (from Bovine skeletal muscle), polymerised to F-actin (bovine, UniProt P68138 1-377)
Assay: cell-based or functional assay

- SAXS decreasing ratio d (0.01 < Q < 0.016) of F-actin; F-actin:CRP2 ratio 1:0 to 1:4.6 (d 1.4 to 3.4): 3.4
B1: Cysteine-rich protein 2 (CRP2), recombinant mouse, full length, with (His)6 tag at the C-terminus (natural protein)
chain: MPVWGGGNKCGACGRTVYHAEEVQCDGRSFHRCCFLCMVCRKNLDSTTVAIHDEEIYCKSCYGKKYGPKGYGYGQGAGTLNMDRGERLGIKPESAQPHRPTTNPNTSKFAQKYGGAEKCSRCGDSVYAAEKIIGAGKPWHKNCFRCAKCGKSLESTTLTEKEGEIYCKGCYAKNFGPKGFGYGQGAGALVHAQ

— PMC5558965, “Cysteine-rich protein 2 accelerates actin filament cluster formation” (PLoS ONE, 2017)
